The record followed here is patent publication US20220251219A1 (published 2022).

Residue numbers refer to the chain shown, from its start.

The target in one experiment is human Sortilin (human, UniProt Q99523 78-830). Nature of the experiment: cell-based or functional assay.
In a further experiment the target is mouse Sortilin (mouse, UniProt Q6PHU5 74-825). Nature of the experiment: cell-based or functional assay.
Experiment [1] deals with T1, recombinant mouse Sortilin (mouse, UniProt Q6PHU5 74-825).
T1 construct: also called mSort
As to the kind of experiment: flow cytometry, 293 cells expressing recombinant mouse Sortilin, 10 ug/ml antibody. A general note: Flow cytometry measures light scatter and fluorescence of single cells or particles in a stream.
Protocol: (§1) Cells were harvested, plated at 10⁵/ml in a 96 well plate, washed, and incubated in 100 μl PBS containing 10 μg/ml Mab and 2% FBS for 1 hour in ice. Cells were then washed twice and incubated in 100 μl PBS+2% FBS containing 5 μg/ml PE-conjugated anti-human secondary antibody for 30 minutes in ice. Cells were washed twice in cold PBS and data was acquired on a BD FACS Canto. Data analysis and calculation of MFI values was performed with FlowJo (TreeStar) software version 10.0.7.

Experiment [2] deals with T2, recombinant human Sortilin (human, UniProt Q99523 78-830).
T2 construct: also called hSort; SORT1
As to the kind of experiment: flow cytometry, 293 cells expressing recombinant human Sortilin, 10 ug/ml antibody.
Protocol: as §1

B1: anti-Sortilin antibody S-18 (antibody, V domains shown)
VH: QVQLVQSGAEVKKPGSSVKVSCKASGGTFSSYAISWVRQAPGQGLEWMGSIIPIFGTANYAQKFQGRVTITADESTSTAYMELSSLRSEDTAVYYCARDKHGRRGYYYYMDVWGKGTTVTVSS
VL: EIVLTQSPATLSLSPGERATLSCRASQSVSSYLAWYQQKPGQAPRLLIYDASNRATGIPARFSGSGSGTDFTLTISSLEPEDFAVYYCQQGANAPPRTFGGGTKVEIK
Consider B1, for which the “Percent reduction of Sortilin levels in U251 cells” value (“Percent reduction … in U251 cells” for short) in the experiment with human Sortilin stood at 85.7%. Moreover, the “Percent reduction of Sortilin levels in N2A cells” value (from here on “Percent reduction … in N2A cells”) in the experiment with mouse Sortilin came to 58%.

B2: anti-Sortilin antibody S-18 (antibody, V domains shown)
VH: B1 VH
VL: B1 VL
notes: IgG
For the molecule B2, the MFI came out at 21700 MFI in experiment [1] and 9350 MFI in experiment [2].

B3: anti-Sortilin antibody S-15 (antibody, V domains shown)
VH: QVQLVQSGAEVKKPGASVKVSCKASGYTFTSYYMSWVRQAPGQGLEWMGIINPSGGSTSYAQKFQGRVTMTRDTSTSTVYMELSSLRSEDTAVYYCARDPSGIAAAGPASRYYYGMDVWGQGTTVTVSS
VL: EIVMTQSPATLSVSPGERATLSCRASQSVSSNLAWYQQKPGQAPRLLIYGASTRATGIPARFSGSGSGTEFTLTISSLQSEDFAVYYCQQARLGPWTFGGGTKVEIK
Regarding B3, in the experiment with human Sortilin, the “Percent reduction … in U251 cells” value came out at 87.8%. In the experiment with mouse Sortilin, the “Percent reduction … in N2A cells” value worked out at 76.1%.

B4: anti-Sortilin antibody S-15 (antibody, V domains shown)
VH: B3 VH
VL: B3 VL
notes: IgG
As to B4, the MFI in experiment [1] was 17600 MFI; in experiment [2], 8740 MFI.

B5: anti-Sortilin antibody S-22 (antibody, V domains shown)
VH: QVQLVQSGAEVKKPGSSVKVSCKASGGTFSSYAISWVRQAPGQGLEWMGGIIPIFGTASYAQKFQGRVTITADESTSTAYMELSSLRSEDTAVYYCARQGRKTGYYYYYGMDVWGQGTTVTVSS
VL: DIQMTQSPSTLSASVGDRVTITCRASQSISSWLAWYQQKPGKAPKLLIYKASSLESGVPSRFSGSGSGTEFTLTISSLQPDDFATYYCQQADGHITFGGGTKVEIK
As for B5, the “Percent reduction … in U251 cells” value in the experiment with human Sortilin is 92.7%. For the same molecule, in the experiment with mouse Sortilin, the “Percent reduction … in N2A cells” value worked out at 87.7%.

B6: anti-Sortilin antibody S-22 (antibody, V domains shown)
VH: B5 VH
VL: B5 VL
notes: IgG
Turning to B6, the values for the MFI in experiment [1] and in experiment [2] were 23200 MFI and 8940 MFI, respectively.

B7: anti-Sortilin antibody S-21 (antibody, V domains shown)
VH: B5 VH with G50S, S59N, Q99E, G100R, K102Y, T103D
VL: DIQMTQSPSSLSASVGDRVTITCRASQSISSYLNWYQQKPGKAPKLLIYAASSLQSGVPSRFSGSGSGTDFTLTISSLQPEDFATYYCQQKASLPFTFGGGTKVEIK
As for B7, in the experiment with human Sortilin, the “Percent reduction … in U251 cells” value turned out to be 78.7%. Besides, the “Percent reduction … in N2A cells” value with mouse Sortilin came to 71.9%.

B8: anti-Sortilin antibody S-21 (antibody, V domains shown)
VH: B5 VH with G50S, S59N, Q99E, G100R, K102Y, T103D
VL: B7 VL
notes: IgG
Regarding B8, the MFI was 22900 MFI in experiment [1] and 9380 MFI in experiment [2].

B9: anti-Sortilin antibody S-2 (antibody, V domains shown)
VH: not shown
VL: B7 VL with K91S, A92D, S93V, L94S, F96I
Turning to B9, the “Percent reduction … in U251 cells” value with human Sortilin turned out to be 96.2%. The “Percent reduction … in N2A cells” value with mouse Sortilin was determined as 66%.

B10: anti-Sortilin antibody S-19 (antibody, V domains shown)
VH: QVQLVQSGAEVKKPGSSVKVSCKASGGTFSSYAISWVRQAPGQGLEWMGGIIPIFGTASYAQKFQGRVTITADESTSTAYMELSSLRSEDTAVYYCARESRIPGSGYYYYYGMDVWGQGTTVTVSS
VL: B7 VL with A50S, K91T, A92D, S93G, L94K, F96P
notes: IgG
Consider B10, for which the MFI came out at 28200 MFI in experiment [1] and 11700 MFI in experiment [2].

B11: anti-Sortilin antibody S-26 (antibody, V domains shown)
VH: EVQLVESGGGLVKPGGSLRLSCAASGFTFSSYSMNWVRQAPGKGLEWVSSISSSSSYIYYADSVKGRFTISRDNAKNSLYLQMNSLRAEDTAVYYCARDRLGRGYKWNWFDPWGQGTLVTVSS
VL: DIQMTQSPSSVSASVGDRVTITCRASQGIDSWLAWYQQKPGKAPKLLIYAASSLQSGVPSRFSGSGSGTDFTLTISSLQPEDFATYYCQQGNSLPPITFGGGTKVEIK
notes: IgG
In the case of B11, the MFI in experiment [1] stood at 20900 MFI; in experiment [2], 9020 MFI.

B12: anti-Sortilin antibody S-29 (antibody, V domains shown)
VH: EVQLVESGGGLVKPGGSLRLSCAASGFTFSSYSMNWVRQAPGKGLEWVSSISSSSNYIYYADSVKGRFTISRDNAKNSLYLQMNSLRAEDTAVYYCARGGLDRWGSFDIWGQGTMVTVSS
VL: not shown
For B12, the “Percent reduction … in U251 cells” value with human Sortilin stood at 90.8%. In the experiment with mouse Sortilin, the “Percent reduction … in N2A cells” value was found to be 53.8%.

B13: anti-Sortilin antibody S-28 (antibody, V domains shown)
VH: B12 VH
VL: not shown
notes: IgG
On to B13, for which the MFI came out at 21600 MFI in experiment [1] and 8560 MFI in experiment [2].

B14: anti-Sortilin antibody S-28 (antibody, V domains shown)
VH: B12 VH
VL: not shown
Turning to B14, in the experiment with human Sortilin, the “Percent reduction … in U251 cells” value is 85%. Besides, the “Percent reduction … in N2A cells” value with mouse Sortilin was found to be 51.1%.

B15: anti-Sortilin antibody S-29 (antibody, V domains shown)
VH: B12 VH
VL: not shown
notes: IgG
Consider B15, for which the MFI in experiment [1] worked out at 21800 MFI; in experiment [2], 9600 MFI.

B16: anti-Sortilin antibody S-51 (antibody, V domains shown)
VH: QVQLVESGGGVVQPGRSLRLSCAASGFTFSSYGMHWVRQAPGKGLEWVAVISYDGSNKYYADSVKGRFTISRDNSKNTLYLQMNSLRAEDTAVYYCAKGLEYYDSSRLYYPYYYYMDVWGKGTTVTVSS
VL: EIVLTQSPATLSLSPGERATLSCRASQSVSSYLAWYQQKPGQAPRLLIYDASKRATGIPARFSGSGSGTDFTLTISSLEPEDFAVYYCQQRSNYPITFGGGTKVEIK
Turning to B16, the “Percent reduction … in U251 cells” value in the experiment with human Sortilin worked out at 75.9%. Further, the “Percent reduction … in N2A cells” value in the experiment with mouse Sortilin was found to be 80.7%.
